In patent US20160317656A1 (Daiichi Sankyo, published 2016):
Where a chain is given by its changes, count along the chain named. Each block holds one binder with its values, some of them ahead of it.

How the values were obtained:
[1] = molecular target: T1, human FGFR2 IIIb variant protein (isoform 2: NP_075259), expressed on transfected cells (human, UniProt P21802 22-821); experiment: flow cytometry, hybridoma supernatant on transfected HEK293T cells
T1 construct: also called pcDNA-DEST40-FGFR2 IIIb
T1 chain: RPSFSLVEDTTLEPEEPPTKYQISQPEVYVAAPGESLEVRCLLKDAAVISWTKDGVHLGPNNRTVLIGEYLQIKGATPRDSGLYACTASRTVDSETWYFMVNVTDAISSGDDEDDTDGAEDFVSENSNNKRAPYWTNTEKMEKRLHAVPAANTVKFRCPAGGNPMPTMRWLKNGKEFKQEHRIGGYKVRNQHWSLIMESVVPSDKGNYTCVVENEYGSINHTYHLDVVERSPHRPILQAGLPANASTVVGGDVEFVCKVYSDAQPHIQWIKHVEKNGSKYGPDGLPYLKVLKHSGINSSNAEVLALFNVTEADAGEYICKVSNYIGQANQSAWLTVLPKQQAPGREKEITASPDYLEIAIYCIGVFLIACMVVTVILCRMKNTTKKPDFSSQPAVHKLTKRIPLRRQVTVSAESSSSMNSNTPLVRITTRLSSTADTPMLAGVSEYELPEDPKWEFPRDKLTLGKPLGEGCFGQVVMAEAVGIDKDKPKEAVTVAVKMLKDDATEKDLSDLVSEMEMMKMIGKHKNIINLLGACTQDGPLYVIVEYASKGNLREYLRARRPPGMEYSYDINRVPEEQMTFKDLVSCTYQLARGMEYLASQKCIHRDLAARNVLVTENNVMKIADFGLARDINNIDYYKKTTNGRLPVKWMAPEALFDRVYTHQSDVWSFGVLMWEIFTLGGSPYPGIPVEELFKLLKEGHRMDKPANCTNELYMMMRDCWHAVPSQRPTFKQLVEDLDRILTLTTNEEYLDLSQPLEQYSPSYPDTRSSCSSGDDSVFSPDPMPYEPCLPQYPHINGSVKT
Protocol: (§1) The cell suspension was centrifuged to remove the supernatant. […] The cells were washed twice with PBS containing 5% FBS, then suspended by the addition of Anti-Rat IgG FITC conjugate (manufactured by Sigma-Aldrich Corp.) diluted 320-fold with PBS containing 5% FBS, and left standing at 4° C. for 1 hour. The cells were washed 3 times with PBS containing 5% FBS and then resuspended in PBS containing 5% FBS and 2 μg/ml 7-aminoactinomycin D (manufactured by Molecular Probes, Inc.), followed by detection using a flow cytometer (FC500; manufactured by Beckman Coulter Inc.). The data was analyzed using Flowjo (manufactured by Tree Star Inc.). After removal of 7-aminoactinomycin D-positive dead cells by gating, the FITC fluorescence intensity of live cells was plotted to a histogram to calculate average fluorescence intensity (MFI).

[2] = molecular target: T2, human FGFR2 IIIc variant protein (isoform 1: NP_000132), expressed on transfected cells (human, UniProt P21802 22-821); experiment: as above
T2 construct: also called pcDNA-DEST40-FGFR2 IIIc
Protocol: as §1

[3] = molecular target: T1, human FGFR2 IIIb variant protein …; experiment: Cell-ELISA on transfected 293 alpha cells, antibody 2 ug/ml
Protocol: (§2) The resulting cells were dispensed in an amount of 100 μl/well to a 96-well plate (manufactured by Corning Inc.) and cultured overnight at 37° C. under 5% CO₂ conditions in a DMEM medium containing 10% FBS. The obtained transfected cells were used in the attached state in Cell-ELISA. […] The cells in the wells were washed once with PBS containing 5% FBS. Then, Anti-Human IgG-Peroxidase antibody produced in goat (manufactured by Sigma-Aldrich Corp.) diluted 500-fold with PBS containing 5% FBS was added thereto, and the plate was left standing at 4° C. for 1 hour. The cells in the wells were washed 5 times with PBS containing 5% FBS. Then, an OPD chromogenic solution (OPD solution (o-phenylenediamine dihydrochloride (manufactured by Wako Pure Chemicals Industries, Ltd.) and H₂O₂ dissolved at concentrations of 0.4 mg/ml and 0.6% (v/v), respectively, in 0.05 M trisodium citrate and 0.1 M disodium hydrogen phosphate dodecahydrate, pH 4.5)) was added thereto at a concentration of 100 μl/well. Color reaction was performed with occasional stirring and stopped by the addition of 1 M HCl at a concentration of 100 μl/well. Then, the absorbance was measured at 490 nm using a plate reader (ARVO; PerkinElmer, Inc.).

[4] = molecular target: T2, human FGFR2 IIIc variant protein …; experiment: as above
Protocol: as §2

[5] = molecular target: T2, human FGFR2 IIIc variant protein …; experiment: flow cytometry on transfected HEK293T cells
Protocol: as §1

binding result [1]: binds
binding result [2]: binds
B1: rat anti-human FGFR2 monoclonal antibody FR2-13 (antibody, V domains shown)
VH: QVKLLQSGAELVKPGASVKLSCKTSGFTFSTSYMSWLKQVPGPSIEWIGWIYAGDGGTKYNQKFKGKATLTVDKSSSTAYMDLSSLTSEDAAVYFCATDGYGDWFAYWGQGTLVTVSS
VL: DIQMTQSPASLSASLGETVTIECRASEDIYSNLAWYQQKPGNSPQLLIYDANILADGVPSRFSGSGSGTQYSLKINSLQSEDVASYFCQQYNNYPPFTFGVGTKLELKR
notes: Used as hybridoma culture supernatant or purified from mouse ascites; also called rat FR2-13 antibody

binding result [3]: binds
binding result [4]: binds
B2: human chimeric anti-FGFR2 antibody cFR2-13 (antibody, human IgG1, V domains shown)
VH: B1 VH
VL: B1 VL
notes: Rat FR2-13 variable regions on human IgG1 / kappa constant regions; also called human chimeric FR2-13

binding result [5]: binds
binding result [1]: binds
B3: rat anti-human FGFR2 monoclonal antibody FR2-14 (antibody, V domains shown)
VH: B1 VH with I45T, S75F, A106T
VL: B1 VL with V101A
notes: Used as hybridoma culture supernatant or purified from mouse ascites; also called rat FR2-14 antibody

binding result [3]: binds
binding result [4]: binds
B4: human chimeric anti-FGFR2 antibody cFR2-14 (antibody, human IgG1, V domains shown)
VH: B1 VH with I45T, S75F, A106T
VL: B1 VL with V101A
notes: Rat FR2-14 variable regions on human IgG1 / kappa constant regions; also called human chimeric FR2-14

binding result [1]: binds
B5: rat anti-human FGFR2 monoclonal antibody FR2-10 (antibody, V domains shown)
VH: EVQLVESGGGLVQPGRSLKLSCVASGFRFNDFWMTWIRQAPGKGLEWVASITYTGDNTYYAGSVKGRITISRDNAKSTLYLQMNSLRSEDTATYYCTRDDYGGYSPYYMDAWGQGTSVTVSS
VL: DIQMTQSPSSLSAFLGDRVTITCRASQDIGNYLRWFQQKPGKSPRLMIYGATNLANGVPSRFSGSRSGSDYSLTINNLESEDMAIYYCLKHNEYPFTFGSGTKLEIKR
notes: Used as hybridoma culture supernatant or purified from mouse ascites; also called rat FR2-10 antibody

binding result [3]: binds
B6: human chimeric anti-FGFR2 antibody cFR2-10 (antibody, human IgG1, V domains shown)
VH: B5 VH
VL: B5 VL
notes: Rat FR2-10 variable regions on human IgG1 / kappa constant regions; also called human chimeric FR2-10
